Assays:
[1] = molecular target: full-length human CD22 fused with flag and Myc tags at the C-terminus, on HEK293 or K562 cells (human) (UniProt P20273); test: cell-based or functional assay
[2] = molecular target: full-length human CD22 fused with flag and Myc tags at the C-terminus, on HEK293 or K562 cells (human) (UniProt P20273); test: ELISA, IgG format; antigen format not described
[3] = molecular target: full-length human CD22 fused with flag and Myc tags at the C-terminus, on HEK293 or K562 cells (human) (UniProt P20273); test: FACS on CD22-expressing cells (HEK293-CD22 by the table's head), anti-hFc Alexa 488

Chain of full-length human CD22 fused with flag and Myc tags at the C-terminus, on HEK293 or K562 cells (human) (P20273 20-847): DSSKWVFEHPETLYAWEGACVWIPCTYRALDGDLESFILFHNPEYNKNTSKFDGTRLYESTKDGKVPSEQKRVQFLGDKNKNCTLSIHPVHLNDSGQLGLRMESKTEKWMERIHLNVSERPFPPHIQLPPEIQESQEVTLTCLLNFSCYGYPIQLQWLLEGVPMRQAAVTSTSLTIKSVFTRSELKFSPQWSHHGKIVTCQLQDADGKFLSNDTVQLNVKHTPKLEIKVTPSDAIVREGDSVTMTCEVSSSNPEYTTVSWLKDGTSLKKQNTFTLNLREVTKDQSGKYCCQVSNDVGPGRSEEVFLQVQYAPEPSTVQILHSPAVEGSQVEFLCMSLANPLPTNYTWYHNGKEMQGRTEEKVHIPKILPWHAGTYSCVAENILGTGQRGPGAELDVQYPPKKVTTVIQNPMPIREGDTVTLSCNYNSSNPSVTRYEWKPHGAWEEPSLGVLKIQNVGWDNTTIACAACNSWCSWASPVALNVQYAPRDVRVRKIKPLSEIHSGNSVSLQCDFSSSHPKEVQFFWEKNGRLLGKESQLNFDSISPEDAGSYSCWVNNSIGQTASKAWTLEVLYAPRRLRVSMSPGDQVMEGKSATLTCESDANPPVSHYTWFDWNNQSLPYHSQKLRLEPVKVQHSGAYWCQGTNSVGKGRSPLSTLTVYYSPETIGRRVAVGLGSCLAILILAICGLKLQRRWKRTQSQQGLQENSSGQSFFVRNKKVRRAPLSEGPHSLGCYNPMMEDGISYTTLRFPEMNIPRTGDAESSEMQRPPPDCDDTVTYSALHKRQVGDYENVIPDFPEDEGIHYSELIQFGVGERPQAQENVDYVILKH

Substance: BL22 (anti-CD22) (antibody)
- EC50 in ADCC assay (Promega ADCC Bioreporter, CD22/HEK293 target cells) [1]: 3.31 nM
- T½ (Hour) of internalization, CD22/HEK293 cells, pHrodo secondary [1]: 3.95 Hour
- EC50 [2]: 0.004 nM
- EC50 [3]: 0.044 nM
